Experiment [1] deals with T1, mouse IGF-IR (mouse, UniProt Q60751 31-1373).
T1 construct: whole, on cells
Kind of experiment: cells treated with antibody, IGF-I stimulation, immunoprecipitation of IGF-IR and Western blot. As to the method: To perform immunoprecipitation experiments, cells were plated in DMEM high glucose media supplemented with L-glutamine (0.29 mg/ml), 10% heat-inactivated FBS, and 500 μg/ml each of geneticin, penicillin and streptomycin to 50% confluence in T25 flasks. 100 μl of an antibody of the invention in Hank's buffered saline solution (HBSS; Gibco BRL) at a concentration of 1 μg/ml was added. The plates were incubated for 30 minutes at 37° C. in an incubator and then stimulated cells with IGF-I at 100 ng/ml for 10 minutes at room temperature. The cells were lysed in RIPA buffer (Harlow and Lane, supra) and immunoprecipitated the IGF-IR with 2 μg of pan-specific SC-713 anti-IGF-IR antibody (Santa Cruz) plus protein A agarose beads for 1 hour at 4° C. The beads were pelleted and washed three times with PBS/T (PBS+0.1% Tween-20) and then boiled in 40 μl Laemmli buffer containing 5% ME.
The samples prepared as described above were then analyzed by Western blot. 12 μl of each sample were loaded per lane on 4-10% gradient Novex™ gels run with 1×MES buffer (Novex™). Gels were run at 150V for 1 hour or at 200V for approximately 30 minutes. The gel was transferred to a membrane in Novex™ transfer buffer with 10% methanol either overnight at 100 mA or for 1-1.5 hours at 250 mA. […]

In experiment [2] the target is T2, human insulin-like growth factor I receptor (IGF-IR) (human, UniProt P08069 31-1367). Kind of experiment: cell-based or functional assay.
T2 sequence (P08069 31-1367): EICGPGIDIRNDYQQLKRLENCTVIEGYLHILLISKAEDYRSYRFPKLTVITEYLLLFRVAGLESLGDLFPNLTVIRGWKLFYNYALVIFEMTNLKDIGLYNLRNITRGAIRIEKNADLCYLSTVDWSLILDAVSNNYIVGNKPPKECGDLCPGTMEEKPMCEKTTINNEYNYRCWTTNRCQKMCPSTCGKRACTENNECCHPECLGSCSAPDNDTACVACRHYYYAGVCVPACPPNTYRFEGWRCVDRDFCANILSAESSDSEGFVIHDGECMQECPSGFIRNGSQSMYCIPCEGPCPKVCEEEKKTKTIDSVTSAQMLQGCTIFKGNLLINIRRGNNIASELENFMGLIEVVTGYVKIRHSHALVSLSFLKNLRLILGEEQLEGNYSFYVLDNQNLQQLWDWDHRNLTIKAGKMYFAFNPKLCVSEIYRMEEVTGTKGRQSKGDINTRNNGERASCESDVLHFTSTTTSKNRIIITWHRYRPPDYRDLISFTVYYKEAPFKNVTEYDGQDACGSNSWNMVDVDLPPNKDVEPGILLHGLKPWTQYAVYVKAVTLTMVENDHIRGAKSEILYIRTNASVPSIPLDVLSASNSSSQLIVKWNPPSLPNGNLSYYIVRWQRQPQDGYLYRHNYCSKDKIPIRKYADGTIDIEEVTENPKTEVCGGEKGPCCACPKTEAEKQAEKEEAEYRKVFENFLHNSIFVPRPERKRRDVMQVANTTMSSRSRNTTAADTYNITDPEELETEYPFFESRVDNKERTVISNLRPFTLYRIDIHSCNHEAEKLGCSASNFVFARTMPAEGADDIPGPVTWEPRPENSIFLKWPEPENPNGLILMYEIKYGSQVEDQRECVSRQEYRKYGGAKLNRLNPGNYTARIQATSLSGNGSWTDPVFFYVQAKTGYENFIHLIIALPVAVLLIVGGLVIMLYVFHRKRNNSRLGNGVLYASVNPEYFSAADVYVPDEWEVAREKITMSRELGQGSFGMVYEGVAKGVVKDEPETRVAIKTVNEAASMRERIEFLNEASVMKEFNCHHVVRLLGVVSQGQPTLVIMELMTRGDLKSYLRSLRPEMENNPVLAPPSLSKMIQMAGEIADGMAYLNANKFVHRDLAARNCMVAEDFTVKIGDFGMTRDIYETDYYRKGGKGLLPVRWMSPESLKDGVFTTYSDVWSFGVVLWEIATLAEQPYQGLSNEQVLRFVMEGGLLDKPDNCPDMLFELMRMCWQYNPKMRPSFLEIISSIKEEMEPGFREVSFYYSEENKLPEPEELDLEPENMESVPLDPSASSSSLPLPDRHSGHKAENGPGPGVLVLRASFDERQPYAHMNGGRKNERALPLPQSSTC
Experiment [3] has as its target T2, human insulin-like growth factor I …. Nature of the experiment: flow cytometry, biotinylated antibody on human cells (MCF-7), half maximal binding. As to the method: (§1) FACS analysis was performed to determine the affinity of the antibody of the invention for IGF-IR from other animals, particularly the old world monkeys described above. Aliquots of human and monkey cells (cynomolgus) (5×10⁵) were incubated for 1 hour on ice with increasing concentrations of biotinylated anti-IGF-IR antibodies of the invention. The samples were incubated for 30 minutes on ice with streptavidin-conjugated RPE (phycoerythrin). Binding was measured by flow cytometry and analyzed with the histograms of fluorescence intensity (FI2-H) versus cell number (Counts) using CellQuest software. Binding (Kd) was calculated for each antibody from graphs of mean fluorescence intensity versus antibody concentration. In most experiments, binding was measured in cultured human MCF-7 cells and cynomolgus tissue culture cells. Depletion of the antibody was controlled by measuring binding over a range of cell concentrations.

Experiment [4] has the same target. Kind of experiment: competition with [125I]-IGF-I for binding to IGF-IR-transfected NIH-3T3 cells, scintillation counting. As to the method: […] experiments were performed to quantitate the ability of the antibody of the invention to inhibit IGF-I binding to IGF-IR in a cell-based assay. IGF-IR-transfected NIH-3T3 cells (5×10⁴/ml) were plated in 100 μl of DMEM high glucose media supplemented with L-glutamine (0.29 mg/ml), 10% heat-inactivated FBS, and 500 μg/ml each of geneticin, penicillin and streptomycin in 96-well U-bottom plates. The plates were incubated at 37° C., 5% CO₂ overnight to allow cells to attach. The media was decanted from the plates and replaced with 100 μl fresh media per well. For testing, the antibody was diluted in assay media (DMEM high glucose media supplemented with L-glutamine, 10% heat-inactivated FBS, 200 μg/ml BSA and 500 μg/ml each of geneticin, penicillin and streptomycin) to the desired final concentration. All samples were performed in triplicate. The plates were incubated at 37° C. for ten minutes. The [¹²⁵I]-IGF-I was diluted to a concentration of 1 μCi/ml in assay media and added 50 μl per well of the plate. As a control for background radioactivity, cold IGF-I was added to a final concentration of 100 ng/ml. […] The samples were transferred to a scintillation plate, 150 μl OptiPhase Supermix was added and the signal was read using a Wallace MicroBeta counter. […]

Experiment [5] concerns the target T3, cynomolgus monkey IGF-IR (cynomolgus monkey, UniProt G7P9I7 31-1343).
T3 construct: whole, on cells; also called IGF-IR on cynomolgus tissue culture cells
Nature of the experiment: flow cytometry, biotinylated antibody on cynomolgus tissue culture cells, half maximal binding. As to the method:
as §1

T1 sequence (Q60751 31-1373): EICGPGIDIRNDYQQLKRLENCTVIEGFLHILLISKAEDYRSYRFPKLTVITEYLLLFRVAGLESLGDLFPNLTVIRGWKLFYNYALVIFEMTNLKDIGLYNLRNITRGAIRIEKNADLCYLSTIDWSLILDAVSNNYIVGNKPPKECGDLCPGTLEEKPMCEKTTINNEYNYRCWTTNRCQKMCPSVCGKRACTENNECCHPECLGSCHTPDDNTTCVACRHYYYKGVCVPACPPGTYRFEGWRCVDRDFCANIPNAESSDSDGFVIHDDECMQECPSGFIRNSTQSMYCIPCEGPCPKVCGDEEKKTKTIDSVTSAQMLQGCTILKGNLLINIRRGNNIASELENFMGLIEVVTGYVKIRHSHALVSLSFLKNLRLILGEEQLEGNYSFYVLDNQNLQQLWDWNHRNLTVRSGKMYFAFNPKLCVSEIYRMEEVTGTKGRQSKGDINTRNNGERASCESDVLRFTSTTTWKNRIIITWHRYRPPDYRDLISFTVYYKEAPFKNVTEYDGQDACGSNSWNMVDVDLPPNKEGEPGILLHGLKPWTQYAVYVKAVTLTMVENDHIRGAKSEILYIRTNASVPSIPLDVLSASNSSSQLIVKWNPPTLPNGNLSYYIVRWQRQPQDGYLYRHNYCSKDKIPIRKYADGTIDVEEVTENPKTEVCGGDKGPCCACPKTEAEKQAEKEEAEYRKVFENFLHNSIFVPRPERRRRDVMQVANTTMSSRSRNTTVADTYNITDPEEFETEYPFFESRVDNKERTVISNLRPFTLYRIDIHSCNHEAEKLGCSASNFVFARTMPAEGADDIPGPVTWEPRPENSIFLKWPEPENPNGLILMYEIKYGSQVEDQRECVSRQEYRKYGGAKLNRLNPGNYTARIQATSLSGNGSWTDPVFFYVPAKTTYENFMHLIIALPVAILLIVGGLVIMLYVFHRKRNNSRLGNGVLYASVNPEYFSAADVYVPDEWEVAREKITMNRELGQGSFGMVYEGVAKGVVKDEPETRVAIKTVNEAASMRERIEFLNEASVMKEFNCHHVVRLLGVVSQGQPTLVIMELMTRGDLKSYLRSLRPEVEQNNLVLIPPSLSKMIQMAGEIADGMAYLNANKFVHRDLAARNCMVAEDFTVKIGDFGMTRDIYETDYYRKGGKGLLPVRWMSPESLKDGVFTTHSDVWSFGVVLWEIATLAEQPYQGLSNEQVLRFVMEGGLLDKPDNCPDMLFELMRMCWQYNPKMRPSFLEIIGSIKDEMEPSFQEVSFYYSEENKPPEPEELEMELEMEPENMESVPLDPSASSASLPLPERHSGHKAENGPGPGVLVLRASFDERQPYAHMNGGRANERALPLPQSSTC
T3 sequence (G7P9I7 entry or part of it): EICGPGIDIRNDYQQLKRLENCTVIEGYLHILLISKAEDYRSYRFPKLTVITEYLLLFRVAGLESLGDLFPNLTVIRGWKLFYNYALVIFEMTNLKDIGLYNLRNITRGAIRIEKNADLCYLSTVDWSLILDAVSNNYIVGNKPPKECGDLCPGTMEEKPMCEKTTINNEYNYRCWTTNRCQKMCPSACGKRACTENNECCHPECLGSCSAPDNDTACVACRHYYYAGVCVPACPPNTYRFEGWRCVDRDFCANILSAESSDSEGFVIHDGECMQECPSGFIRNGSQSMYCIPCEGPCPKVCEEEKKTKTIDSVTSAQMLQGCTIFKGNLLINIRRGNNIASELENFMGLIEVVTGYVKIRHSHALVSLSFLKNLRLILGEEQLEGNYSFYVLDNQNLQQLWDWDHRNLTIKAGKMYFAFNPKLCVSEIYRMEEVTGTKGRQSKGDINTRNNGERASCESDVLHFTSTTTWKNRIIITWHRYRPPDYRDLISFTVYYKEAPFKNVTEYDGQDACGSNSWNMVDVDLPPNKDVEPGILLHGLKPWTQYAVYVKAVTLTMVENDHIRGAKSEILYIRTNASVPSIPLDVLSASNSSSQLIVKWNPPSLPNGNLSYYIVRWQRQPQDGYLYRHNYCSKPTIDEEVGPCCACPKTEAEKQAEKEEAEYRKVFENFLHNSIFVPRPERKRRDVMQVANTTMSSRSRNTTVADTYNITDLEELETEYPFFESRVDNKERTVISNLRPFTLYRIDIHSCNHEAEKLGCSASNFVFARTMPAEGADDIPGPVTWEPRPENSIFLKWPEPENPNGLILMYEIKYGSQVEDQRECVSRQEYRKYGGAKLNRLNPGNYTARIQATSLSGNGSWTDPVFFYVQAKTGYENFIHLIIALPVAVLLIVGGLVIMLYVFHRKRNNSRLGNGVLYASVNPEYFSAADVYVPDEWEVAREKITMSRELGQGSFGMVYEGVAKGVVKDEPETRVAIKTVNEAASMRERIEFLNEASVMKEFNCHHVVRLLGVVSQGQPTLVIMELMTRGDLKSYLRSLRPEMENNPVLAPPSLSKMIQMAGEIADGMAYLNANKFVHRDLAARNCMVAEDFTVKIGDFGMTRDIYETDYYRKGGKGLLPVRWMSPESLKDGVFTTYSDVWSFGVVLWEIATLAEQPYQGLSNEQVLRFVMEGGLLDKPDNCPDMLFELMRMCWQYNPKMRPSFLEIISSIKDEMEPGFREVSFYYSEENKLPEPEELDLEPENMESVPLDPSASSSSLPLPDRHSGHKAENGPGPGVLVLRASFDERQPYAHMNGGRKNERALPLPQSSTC

B1: anti-IGF-IR antibody 2.12.1fx (antibody, human IgG2, kappa, V domains shown)
VH: QVQLVESGGGLVKPGGSLRLSCAASGFTFSDYYMSWIRQAPGKGLEWVSYISSSGSTRDYADSVKGRFTISRDNAKNSLYLQMNSLRAEDTAVYYCARDGVETTFYYYYYGMDVWGQGTTVTVSS
VL: DIQMTQSPSSLSASVGDRVTITCRASQDIRRDLGWYQQKPGKAPKRLIYAASRLQSGVPSRFSGSGSGTEFTLTISSLQPEDFATYYCLQHNNYPRTFGQGTKVEIKR
notes: also called the antibody of the invention; the antibody of this invention
For the molecule B1, the binding result in experiment [1] was “no binding (tested: 1 µg/ml)”. The “IC50 of inhibition of IGF-I-induced tyrosine phosphorylation of IGF-IR (ELISA on lysates of IGF-IR-transfected NIH-3T3 cells)” value in experiment [2] was found to be 0.42 µg/mL. Also, the Kd in experiment [3] and in experiment [5] was 0.1 µg/mL each time. Besides, the IC50 in experiment [4] amounted to 0.4 µg/mL.

A word on the Kd: it is the constant that tells how readily two partners part at equilibrium. In general, IC50 refers to the concentration that inhibits the measured activity by half.

Values taken from patent US20080181891A1 (Pfizer, published 2008).
